The chains are these.
B1: Hairpin Ribozyme (parent)
chain: GUCCUCUUUCACGUGCGCGUGAAAGAGAGAAGUGAACCAGAGAAACACACGUUGUGGUAUAUUACCUGGUA

In this data set the parent is B1. Put plainly: self-cleavage, relative activity (ratio to wild type); higher = more cleavage; co-transcriptional.
On to GUCCUCUAUCACGUGCGCGUGAAAGAGAGAAGUGAACCAGAGAAGCACACGUUGUGGUAUAUUACCUGGUA, for which the self-cleavage amounted to 0.193.

For the variant GUCCUCUUUCGCGUGCGCGUGAAAGAGAGAAGUGAACCAGAGAAACACACGUUGUGGUAUAUUACCUGCUA, the self-cleavage is 0.267. For GUCCUCUUUCACGUGCGCGAGAAAGUGAGAAGUGAACCAGAGAAACACACGUUGUGGUAUAUUACCUGGUA the value was 0.611. GUCCUCUUUCACGUGAGCGCGAAAGAGAGAAGUGAACCAGAGAAACACACGUUGUGGUAUAUUACCUGGUA: the self-cleavage stood at 0.956.

For GUCCUCUUUCACGUGCGCGUGCAAGAGAGAAGUGAACCAGAGAAACACACGUUGUGGUAUAUCACCUGGUA, the self-cleavage came out at 0.203.

On to GUCCUCUUUCACGUGCGCGUGAAAGAGAGAAGAGAACGAGAGAAACACACGUUGUGGUAUAUUACCUGGUA, for which the self-cleavage turned out to be 0.128. To GUCCUCUUUCACGUGCGCGUGAAAGAGGGAAGUGAACCAGAGCAACACACGUUGUGGUAUAUUACCUGGUA belongs 0.153. To GUCCUCUUUCACGUGCGCGUGAAAGAGAGAAGUGAACCAGAGAAACACACGUUGUGGGAUACUACCUGGUA belongs 0.187; to GUCCUCUUUCACGUGCGCGUGAAAGAGAGAAGUGAACCAUAGAAACACACGUUGCGGUAUAUUACCUGGUA, 0.171. As to GUCCUCUUUCACGUGCGCGUGAAAAAGUGAAGUGAACCAGAGAAACACACGUUGUGGUAUAUUACCUGGUA, the self-cleavage amounted to 0.585. For GUCCUCUUUCACGUGCGAGUGAAAGAGAGAAGUGAGCCAGAGAAACACACGUUGUGGUAUAUUACCUGGUA the value was 0.972. For GUCCUCUUUCACGUGCGCAUGAAAGAGAGAAGUGAACCAGAGAAACACACGUUGUGGUAUAUUACCCGGUA the value was 0.186. For GGCCUCUUUCACGUCCGCGUGAAAGAGAGAAGUGAACCAGAGAAACACACGUUGUGGUAUAUUACCUGGUA the value was 0.342; for GUCCGCUUUCACGUGCGCGUGAACGAGAGAAGUGAACCAGAGAAACACACGUUGUGGUAUAUUACCUGGUA, 0.273. Regarding GUCCUCUUUCACGUGCGCGUGAAAGAUAGAAGUCAACCAGAGAAACACACGUUGUGGUAUAUUACCUGGUA, the self-cleavage was determined as 1.16. With GUCCUCGUUCACGUGCGCGUGAAAGAGAGAAGUGAACCAGAGAAACACAUGUUGUGGUAUAUUACCUGGUA, the self-cleavage came out at 0.371. For GUCAUCUUUCACGUGCGCGUGAAAGAGAGAAGUGAACCAGACAAACACACGUUGUGGUAUAUUACCUGGUA the value was 0.132. For GUCCGCUUUCACGUGCGCGUGAAAGAGAGAAGUGAACCAGAGAAACACCCGUUGUGGUAUAUUACCUGGUA the value was 0.205. Take GUCCUCUGUCACGUGCGCGUGAAAGAGAGAAGUGAACCAGUGAAACACACGUUGUGGUAUAUUACCUGGUA: the self-cleavage worked out at 1.07. Consider GUCCUCUUUCACGUGCGCGUGAAUGAGAGAAGUGCACCAGAGAAACACACGUUGUGGUAUAUUACCUGGUA, for which the self-cleavage was 0.951.

Regarding GUCCUCUUUCACGUGCGCGUGAAAGAGAGAAGUGAACCAGAGAAACACUCGUUGUGGUAUAUAACCUGGUA, the self-cleavage turned out to be 0.183. As for GUCCUCUUUCACGUGCGCGUGAAAGAGAGAAGUGAACCAGAGAAACACACGUAGUGGUAUAUUACUUGGUA, the self-cleavage turned out to be 0.649. To GUCCUCUUUCACGUGCGCGUGUAAGAGAGAAGUGAACCAGAGAGACACACGUUGUGGUAUAUUACCUGGUA belongs 0.113; to GGCCUCUUUCACGUGCGCGUGAAAGAGAGAAGUGAACCAGAGAAACACACGCUGUGGUAUAUUACCUGGUA, 0.346. To GUCCUCUUUCACGUGCGCGUGAAAGAGAGAAGUGAACCAGAGAAACACACGCUGAGGUAUAUUACCUGGUA belongs 0.318; to GUCCUCUUUCACGUGCGCGUGAAAGAGAGAAGUGACCCAGAGAAACACACGUUGUGGUAUAUGACCUGGUA, 0.0757; to GUCGUCUUUCACGUGCGCGUGAAAGAGAGAAGUGAACCAGAGAAACACACGUGGUGGUAUAUUACCUGGUA, 0.117. For GUCCUCUUUCACGUGCGCGUGAAAGAGAGAAGUGAACCAGAGAAACACGCGUUGUGGUAUAUUACCUGUUA the value was 0.148; for GUCCUCUUUCACGUGCGCGUGAAGGAGAGAAGUGAACCGGAGAAACACACGUUGUGGUAUAUUACCUGGUA, 0.308; for GUCCUCUUUCACGUGCGCGUGAAAGAGAGAAGUGAACCAGAGAAACACGCGUUGUGGAAUAUUACCUGGUA, 0.217.

On to GUCCUCUUUCACGUGCGCGUGAAAGAGAGAAGUGAACCAGAGAAACACACGUUGUGUUAUAUUACCUGUUA, for which the self-cleavage was 0.215. Take GUCCUCUUUCACGUGCGCGUGAAAGAGAGAAGUGAACCAGAGAAACACACUUUGUGGUAUAUUACCUGGGA: the self-cleavage came out at 0.887.

In the case of GUCCUCUUUCACGUGCGCGUGAAAGAGAGAAGUGAAGCAGAGAAACACACGCUGUGGUAUAUUACCUGGUA, the self-cleavage is 0.242. To GUCCUCUUUCACGUGCGCGUGAAAGAGAGAAGUGAGCCAGAAAAACACACGUUGUGGUAUAUUACCUGGUA belongs 0.23; to GUCCUCUUUCACGUGCGCGUGAAAGAGAGAAGCGAACCAGAGAAACACCCGUUGUGGUAUAUUACCUGGUA, 0.148. Turning to GUCCUCUUUCACGUGCGCGUGAAAGAGAGAAGUGAAACAGAGAAACACACGCUGUGGUAUAUUACCUGGUA, the self-cleavage came out at 0.266. For GUCCUCUUUCACGUGCGCGUGAAAGAGAGAAGUGAACCAGAGUAAGACACGUUGUGGUAUAUUACCUGGUA the value was 0.0741. For GUCCUCUAUCACGUGCGCGUGAUAGAGAGAAGUGAACCAGAGAAACACACGUUGUGGUAUAUUACCUGGUA the value was 0.911; for GUCCUCUUUCACUUGCGCGUGAAAGAGAGAAGUGAACCAGAGAAACACACGUUGUGGUAUAUUACCUCGUA, 0.19. To GUCCUCUUUCGCGUGCGCGUGAAAGAGAGAAGUGAACCAGAGAAACACACGUUGUGUUAUAUUACCUGGUA belongs 0.392. With GCCCUCUUUCACGUGCGCGUGAAAGAGAGAAGUGAACCAGAGAAACACACGUUGUGGUAUAUUACCUGUUA, the self-cleavage was determined as 0.114.

As to GUCCUCUUUCACGUGCGCGUGAAAGAGAGAAGUGAACCAGAGAAACGCACGUUAUGGUAUAUUACCUGGUA, the self-cleavage worked out at 0.177. For GUCCUCUUUCACGUGCGCGUGAAAGAGAGAAGUGAAACAGAGAAACACGCGUUGUGGUAUAUUACCUGGUA the value was 0.325. To GUCCUCUUUCACGUGCGCGUGAAAGAGAGAAGUGAACCAGAGAAACACACAUUGUGGUAUAUGACCUGGUA belongs 0.135; to GUCCUCUUUCACGUGCGCGUGAAAGAGAGAAGUGAACCAGAGAACCACACGUUGUGGUAUAUUGCCUGGUA, 0.259; to GUCCUCUUUCACGUGCGCGUGAAAGACAGAAGUGAACCAGAGAAACACACGCUGUGGUAUAUUACCUGGUA, 0.22. In the case of GUCCUCUUUCACGUGCGCGUGAAAGAGAGAAGUGAACCAGAGAAACACACGUUGUGUUAUUUUACCUGGUA, the self-cleavage turned out to be 0.203. For GUCCUCUUUCACGUGCGCGUGAAAGAGAGAGGUGAACCAGAGAAACAGACGUUGUGGUAUAUUACCUGGUA the value was 0.1. To GUCCUCUUUCACGUGCGCGUGAAAGAGAGAAGUGAACCAGAGAAACACAAGUUGUGGUUUAUUACCUGGUA belongs 0.231; to GUCCUCUUUCACGUGCGCGUGAAAGAGAGAAGUGAACUAUAGAAACACACGUUGUGGUAUAUUACCUGGUA, 0.101; to GACCUCUUUCACGUGCGCGUGAAAGAGAGAAGUGAACCAGAGAAACUCACGUUGUGGUAUAUUACCUGGUA, 0.0626. In the case of GACCUCUUUCACGUGCGCGUGAAAGAGAGAAGUGAACCAGAGAAACACACGGUGUGGUAUAUUACCUGGUA, the self-cleavage worked out at 0.203.

As for GUCCUCUUUCACGUGCGCGUGAAAGAGAGAAGUGAACCAGAGAAACACACGCUGUGGUAUAUUACCUGGGA, the self-cleavage turned out to be 0.988. For GUCCUCUUUCAAGUGCGCGUGAAAGAGAGAAGUGAGCCAGAGAAACACACGUUGUGGUAUAUUACCUGGUA the value was 0.956; for GUCCUCUUUCACGUGCCCGUGAAAGAGAGAAGUGAACCAGAGAAACACACGUGGUGGUAUAUUACCUGGUA, 0.41; for GUCCUCUUUCACGUGCGCGUGAAAGAGAGAAGUGAACCAGAGAAACACACGUUGUGGUAUACUACCAGGUA, 0.166. As for GUCCUCUUUCACGUGCGCGUGAAAGAGAGAAGUGAACCAGAGGAACACACGUUGUGGUAUAUUACCUGGCA, the self-cleavage stood at 0.19. To GUCCUCUUUCACGUGCGCGUGAAAGAGAGGAGUGAACCAGAGAAACACACGUUGUGGUAUAUUACCUGGUU belongs 0.225; to GUCCUCUUUCACGUGCGCGUGAAAGAGAGGAGUGAACCAGAGAAACACACGUUGUGGUAUAUUACCUGGUC, 0.217; to GUCCUCUUUCACGUGCGCGUGAAAGACAGAAGUGAACCCGAGAAACACACGUUGUGGUAUAUUACCUGGUA, 0.0945. Turning to GUCCUCUUUCACGUGCGCGUGAAAGAGAGAAGUGAACCAGAGACAUACACGUUGUGGUAUAUUACCUGGUA, the self-cleavage was found to be 0.238.

GUCCUCUUUCACGUGCGCGUUAAAGAGAGAAGUGAACUAGAGAAACACACGUUGUGGUAUAUUACCUGGUA: the self-cleavage turned out to be 0.357. To GUCCUCUUUCACGUGCGCGUGAAAGAGAGAAGUGAACCAGAGAAACACACGUUGUGUUAUAUUAUCUGGUA belongs 0.25. With GUCCUCUUUCACGUGCGCGGGAAAGAGAGAAGUUAACCAGAGAAACACACGUUGUGGUAUAUUACCUGGUA, the self-cleavage is 1.5. To GUCCUCUUUCACGUGCGCGUGAAAGAGAGAAGUGAACCAGGGAAAGACACGUUGUGGUAUAUUACCUGGUA belongs 0.116; to GUCCUCUUUCACGUGCGCGUGAAAGUGAGAAGUCAACCAGAGAAACACACGUUGUGGUAUAUUACCUGGUA, 1.51; to GUCCUCUUUCACCUGCGCGUGAAAGAGAGAAGUGAACCAGAGAAACACACGUUGUGGCAUAUUACCUGGUA, 0.869.

As for GUCCUCUUUCACGUGCGCGUGAAAGAGAGGAGUGAACCAGAGAAACACACGGUGUGGUAUAUUACCUGGUA, the self-cleavage came to 0.186. Turning to GUCCUCUUUCAUGUGCGCGUGAAAGAGAGAAGUGAACCAGAGAAACACACGUUGUGGUAUAUUAGCUGGUA, the self-cleavage turned out to be 0.2. To GUCCUCUUUCACGUGCGCGUGAAAGAGAGAAGUGAACCAGAGAACCACACGUUAUGGUAUAUUACCUGGUA belongs 0.132; to GUCCUCUUUCACGUGCUCGUGAAAGAGAGAAGUGAACCAGCGAAACACACGUUGUGGUAUAUUACCUGGUA, 0.997. For GUCCUCUUUCACGUGCGCGUGAAAGAGAGAAGUGAACCAGAGAUACACACGUUUUGGUAUAUUACCUGGUA, the self-cleavage is 0.0855.

In the case of CUCCUCUUUCACGUGCGCGUGAAAGAGAGAAGUGAACCAGAGAAACACACGUUGUGGUAUCUUACCUGGUA, the self-cleavage came to 0.249.

As to GUCCUCUUUCACGUGCGCGUGAAAGAGAGAAGUGUAGCAGAGAAACACACGUUGUGGUAUAUUACCUGGUA, the self-cleavage is 0.194. For GUCCUCUUUCACGUGCGCGUGAAAGAGUGAAGUGAACCAGAGAAACACACGUUGUGGUAUAUUACCAGGUA the value was 0.0994; for GUCCUCUUUCACGUGCGCGUGAAAGGGAGAAGUGAACCAGAGAAACACACGUUGUGGUAUAUUACAUGGUA, 0.171.
